These results are taken from patent publication US20030004317A1 (GlaxoSmithKline, published 2003).

The target in experiment [1] is native cell surface receptor on R-SMC. In words: cell-based or functional assay.
For experiment [2], the target named is T1, human αvβ5 receptor protein purified from human placenta (human, UniProt P06756 31-1048; P18084 24-799).
T1 construct: mature; Detergent-solubilised whole heterodimer from tissue
In words: BIAcore, receptor immobilized in a hybrid bilayer membrane, mAb in solution (100, 25, 6 nM).
Method: (§1) The receptors was immobilized by inserting it into a phospholipid vesicle and producing a hybrid bilayer membrane on a hydrophobic sensor surface. […] Samples of the mAb were passed over this surface and the rates at which they bound and then dissociated from the surface were measured and analyzed using software provided with the instrument.

The target of experiment [3] is T2, human αvβ3 receptor protein purified from human placenta (human, UniProt P06756 31-1048; P05106 27-788).
T2 construct: mature; Detergent-solubilised whole heterodimer from tissue; coated on plates (ELISA), inserted in a hybrid bilayer membrane or passed in solution (BIAcore); also called vitronectin receptor; αβ3 receptor
T2 sequence (P06756 31-1048, form in doubt, chain 1 of 2): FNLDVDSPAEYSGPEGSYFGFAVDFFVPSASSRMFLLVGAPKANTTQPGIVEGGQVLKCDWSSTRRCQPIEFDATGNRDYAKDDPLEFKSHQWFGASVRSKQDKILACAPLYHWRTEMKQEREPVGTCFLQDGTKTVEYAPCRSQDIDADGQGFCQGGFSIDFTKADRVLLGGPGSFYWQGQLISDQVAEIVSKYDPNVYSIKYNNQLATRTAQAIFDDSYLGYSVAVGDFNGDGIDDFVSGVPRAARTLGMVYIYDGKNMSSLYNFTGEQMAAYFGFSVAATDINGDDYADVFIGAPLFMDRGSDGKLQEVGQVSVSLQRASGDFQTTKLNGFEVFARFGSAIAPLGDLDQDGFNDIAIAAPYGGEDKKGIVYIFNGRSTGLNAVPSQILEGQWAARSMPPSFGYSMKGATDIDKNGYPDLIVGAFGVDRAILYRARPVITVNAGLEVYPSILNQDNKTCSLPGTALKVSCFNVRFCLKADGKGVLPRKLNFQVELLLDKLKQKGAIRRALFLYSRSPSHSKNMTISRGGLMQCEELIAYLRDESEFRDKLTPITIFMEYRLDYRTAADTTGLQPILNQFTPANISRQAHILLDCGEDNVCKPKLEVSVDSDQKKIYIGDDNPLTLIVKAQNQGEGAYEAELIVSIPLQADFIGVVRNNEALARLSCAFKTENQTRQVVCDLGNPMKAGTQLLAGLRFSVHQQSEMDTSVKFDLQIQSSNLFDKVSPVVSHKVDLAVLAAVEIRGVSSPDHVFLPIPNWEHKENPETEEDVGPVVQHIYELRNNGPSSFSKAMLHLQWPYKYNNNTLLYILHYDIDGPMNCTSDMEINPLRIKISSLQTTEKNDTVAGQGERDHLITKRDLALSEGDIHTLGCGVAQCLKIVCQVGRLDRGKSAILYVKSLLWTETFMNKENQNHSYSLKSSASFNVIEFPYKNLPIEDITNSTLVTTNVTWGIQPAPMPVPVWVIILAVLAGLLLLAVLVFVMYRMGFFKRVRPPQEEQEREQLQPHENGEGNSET
T2 sequence (P05106 27-788, form in doubt, chain 2 of 2): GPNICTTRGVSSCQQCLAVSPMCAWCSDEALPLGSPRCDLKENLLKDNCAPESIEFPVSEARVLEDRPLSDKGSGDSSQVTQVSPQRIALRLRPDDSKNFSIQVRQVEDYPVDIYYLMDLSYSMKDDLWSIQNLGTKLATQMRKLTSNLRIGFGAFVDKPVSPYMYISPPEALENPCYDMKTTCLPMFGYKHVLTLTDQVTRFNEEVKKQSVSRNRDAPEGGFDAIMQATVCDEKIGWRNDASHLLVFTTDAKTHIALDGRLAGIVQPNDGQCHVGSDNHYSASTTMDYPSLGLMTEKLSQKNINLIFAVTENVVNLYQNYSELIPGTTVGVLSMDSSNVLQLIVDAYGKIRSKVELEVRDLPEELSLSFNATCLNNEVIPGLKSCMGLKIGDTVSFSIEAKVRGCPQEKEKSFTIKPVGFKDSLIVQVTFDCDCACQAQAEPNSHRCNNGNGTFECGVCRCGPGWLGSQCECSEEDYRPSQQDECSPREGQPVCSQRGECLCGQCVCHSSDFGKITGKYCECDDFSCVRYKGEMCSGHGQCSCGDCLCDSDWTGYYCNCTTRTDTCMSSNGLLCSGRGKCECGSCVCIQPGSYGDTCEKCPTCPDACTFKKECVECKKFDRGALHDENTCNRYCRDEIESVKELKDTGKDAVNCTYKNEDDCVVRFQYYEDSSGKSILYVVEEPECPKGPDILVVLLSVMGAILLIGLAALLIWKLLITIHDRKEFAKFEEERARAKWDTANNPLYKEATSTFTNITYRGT
The description is as above.
Method: as §1

The target in experiment [4] is T2, human αvβ3 receptor protein purified …. In words: BIAcore, receptor immobilized in a hybrid bilayer membrane, mAb in solution. Background: SPR reads the build-up and loss of mass on a sensor chip optically.
Method: as §1

T1 sequence (P06756 31-1048, form in doubt, chain 1 of 2): as the sequence (P06756 31-1048, form in doubt, chain 1 of 2) above
T1 sequence (P18084 24-799, form in doubt, chain 2 of 2): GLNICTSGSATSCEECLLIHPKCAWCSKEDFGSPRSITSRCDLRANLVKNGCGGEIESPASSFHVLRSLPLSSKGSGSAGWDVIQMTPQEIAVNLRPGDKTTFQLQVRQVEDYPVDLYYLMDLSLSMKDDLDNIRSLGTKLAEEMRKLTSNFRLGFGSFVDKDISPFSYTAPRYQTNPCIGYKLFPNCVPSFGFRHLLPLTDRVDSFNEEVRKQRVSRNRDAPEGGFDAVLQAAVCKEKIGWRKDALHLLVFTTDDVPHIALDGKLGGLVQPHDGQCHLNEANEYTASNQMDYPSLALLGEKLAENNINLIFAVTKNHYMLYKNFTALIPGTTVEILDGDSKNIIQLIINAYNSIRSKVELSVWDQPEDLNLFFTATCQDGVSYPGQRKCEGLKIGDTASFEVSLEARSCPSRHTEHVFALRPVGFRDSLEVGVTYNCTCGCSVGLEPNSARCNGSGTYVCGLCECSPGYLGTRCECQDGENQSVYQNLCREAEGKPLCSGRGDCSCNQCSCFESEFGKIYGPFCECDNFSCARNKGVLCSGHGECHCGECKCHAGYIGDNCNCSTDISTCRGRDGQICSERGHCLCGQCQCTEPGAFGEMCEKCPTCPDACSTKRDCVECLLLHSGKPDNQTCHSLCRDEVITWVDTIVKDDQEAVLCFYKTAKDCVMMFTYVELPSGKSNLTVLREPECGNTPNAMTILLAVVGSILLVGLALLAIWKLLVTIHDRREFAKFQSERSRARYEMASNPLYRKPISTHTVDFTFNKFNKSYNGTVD

As to murine monoclonal antibody LM609, the Inhib (%) R-SMC (50 µg/ml) in experiment [1] came out at 43%.

B1: murine monoclonal antibody B9 (antibody, mouse IgG1, V domains shown)
VH: QVQLQQSGAELMKPGASVKISCKATGYTFSSYWIEWVKQRPGHGLEWIGEILPRSGNTNYNEKFKGKATFTAETSSNTAYMQLSSLTPEDSAVYYCSSRGVRGSMDYWGQGTSVTVSS
VL: DIQMTQTTSSLSASLGDRVTITCRSSQDISNFLNWYQQKPDGTVKLLIYYTSTLHSGVPSRFSGSGSGTDYSLTISNLEQEDIATYFCQQGNTLPWTFGGGTNLEIKR
notes: also called mAb B9; Murine B9
In general, Kd refers to the constant that tells how readily two partners part at equilibrium. The low end stands for higher affinity, the high end for lower affinity. Consider B1, for which the figures for the dissociation constant (Kd) in experiment [2] and in experiment [3] were 0.11 nM and 0.29 nM, respectively. Also, the “fold higher binding affinity (KD) than D12” value in experiment [4] was approximately 5 fold.

B2: murine monoclonal antibody D12 (antibody, V domains shown)
VH: EIQLQQSGPEVVKPGASVKVSCKASGYAFTSYNMYWVKQSHGKSLEWIGYIDPYNGDTFYNQKFKGKATLTVDKSSSTAYMHLNSLTSEDSAVFYCARQNYGSFAYWGQGTLVTVSA
VL: DIVLTQSPATLSVTPGDSVSLSCRASQSISNHLHWYQQRSHESPRLLIKYASQSISGIPSRFRGSGSGTDFTLNINILETEDFGMYFCQQSNSWPFTFGSGTNLEIKR
As to B2, in experiment [3], the Kd came out at 1.3 nM. In experiment [1], this molecule came in with an Inhib (%) R-SMC (50 µg/ml) of 66%.
